# Reference: the supplement of paper PMC9732359
# ± gives the uncertainty stated by the source.
# Test: protein stability index of a GFP-peptide fusion (yeast GPS) (PSI 1-4); higher = more stable; sorted into four equal gates, so the index is relative within each strain
# Settings: doa10∆
# Summary of the method: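 Each library plasmid carries Cherry plus GFP with a tiled 17-residue yeast protein peptide fused downstream, and the pooled library was carried in yeast. Mid-log cultures in leucine-free medium were sorted into four equal gates by GFP/Cherry ratio. Reads from Illumina sequencing of PCR-amplified plasmids from each gate were assigned to strains by barcodes. Per peptide, the protein stability index was computed as the summed products of gate read frequency and gate number.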
row,Sequence,protein stability index
1,GKNVINRERFISKLFLR [SMD2],2.85 ± 0.093
2,GKPHFSLLGGFDENIAR [PCI8],3.18 ± 0.11
3,GKRIAYVYRASKEVRGS [RPL33A],2.8 ± 0.063
4,GKRQVLIRPSSKVIIKF [RPS22A],3.04 ± 0.068
5,GKTIVVKDLGQGLKLAK [SMC3],2.9 ± 0.15
6,GLFGANSNSNSGSLFGS [YGL172W/NUP49],1.31 ± 0.13
7,GLGMISASHILIPASDL [PRP8],2.06 ± 0.05
8,GLGVLTHRNKDGTGVRV [FAS1],3.12 ± 0.066
9,GLHKFVKGDLLQEAIDF [PRE10],2.93 ± 0.1
10,GLIAARRTGLLRGSQKT [RPL2A],3.04 ± 0.12
11,GLKYALATGNWGEQKKA [RPB2],2.58 ± 0.097
12,GLRVRGQHTKTTGRRRA [RPS18A],2.09 ± 0.052
13,GLSLAGLAPDARVLSNY [PRE5],1.23 ± 0.098
14,GLSQTEAFGNIKIDAKP [MCD1],2.07 ± 0.083
15,GLTLSTTNLDIDLLTFQ [RPP1],2.94 ± 0.067
16,GLVNHRVGVKLKFNSTE [SMX3],2.48 ± 0.052
17,GNGEGLGGDSDEANIEI [BRN1],3.11 ± 0.17
18,GNILDFNLNLPPSSFGR [REC8],3.04 ± 0.075
19,GNIVAELAQDPQTMEHY [YCS4],2.9 ± 0.1
20,GNLIGVDPFDSDEEESV [SNU114],3.03 ± 0.075
21,GNVVMDIGKGAETTFLQ [RPC53],3.26 ± 0.2
22,GPAAAIEFEYDPWNKLK [RPB3],3.04 ± 0.081
23,GPSVESYELRNTTTYKS [SNF5],2.75 ± 0.1
24,GQCRPISKTVRFNVVKV [RPS11A],3.31 ± 0.12
25,GQGYRKVGIWPYFDYIF [YJL039C/NUP192],3.37 ± 0.14
26,GQPVNDFIDTATRHVLM [RPS3],2.96 ± 0.081

row,Sequence,protein stability index
1,GQSAGKLAAIVEIIDQK [RPL14A],3.28 ± 0.098
2,GRDTTDYLKNIIVENSG [RPN2],3.21 ± 0.13
3,GRHHQEEELFQEMIEIS [SRP54],3.21 ± 0.058
4,GRILQNLLHSYMEKGTQ [YML103C/NUP188],2.66 ± 0.14
5,GRLDRKIEFPLPSEDSR [RPT5],3.36 ± 0.15
6,GRNGSNGNDESSEYETI [NUT1],3.13 ± 0.13
7,GRQFCNRLSRIHLYMLT [YLR018C/POM34],1.68 ± 0.051
8,GRSWDGKEHIVAALVSL [ECM29],1.88 ± 0.052
9,GRVTFIPLNRLSLDSDV [SMC3],2.65 ± 0.09
10,GRYMEALALYVDAYRRL [SRP68],1.84 ± 0.074
11,GSELVQKYVGEGARMVR [RPT1],2.57 ± 0.22
12,GSESDDSEGSIKQTSDE [ECM29],3.32 ± 0.1
13,GSGLLKLSEIILNINNS [SWI1],2.69 ± 0.089
14,GSIGSRKYSFNYSSLPS [YAR002W/NUP60],1.95 ± 0.059
15,GSLKLPNCPRPNMSICI [RPL1A],2.62 ± 0.082
16,GSMTKTWYVGNSRGKFD [SSN2],3.74 ± 0.26
17,GSRMVRELFVMAREHAP [RPT6],1.82 ± 0.074
18,GSRVLIFSQMSRLLDIL [ISW2],3.27 ± 0.15
19,GTISKLENKENGLLNEI [SMC2],3.45 ± 0.29
20,GTLEYGTCFGGSKLEDM [RET1],3.17 ± 0.072
21,GTNAMLPSPESLKTKLN [SNF5],1.88 ± 0.037
22,GTNNARLAQLLRQLASY [RPN1],3.17 ± 0.092
23,GTPEATKGMITNLQRNV [NUT2],2.95 ± 0.15
24,GTPLFTFGKKADVTSNI [YOR098C/NUP1],1.82 ± 0.05
25,GTPLLEVRGQVPVIESA [SNU114],1.62 ± 0.046
